According to patent US20040248202A1, “Bacteriorhodopsin/G protein-coupled receptor chimeras” (Wisconsin Alumni Research Foundation, priority 1998, published 2004):

How the values were obtained:
holotransducin = holotransducin (Homo sapiens, UniProt P11488); experiment: Effects of GDP concentration on the basal exchange of GTPγS by holotransducin; assay type: biochemical; details: 10 Minutes
Description: (§1) Chimeric or bacteriorhodopsin protein (1.7 uM) was incubated with 0.8 uM holotransducin with 10 nM ^35S radiolabeled GTPyS in buffer (20 mM Hepes (pH 7.5), 5 mM MgCl2, 1 mM DTT, 0.1 mM EDTA, and 20 mM NaCl). The reaction was incubated at 30° C. for 5, 10, 15 or 30 minutes. The reaction was terminated by transferring aliquots of the reaction mixture to nitrocellulose filters (0.45 um) prewetted with wash buffer (10 mM Tris (pH 7.5), 5 mM MgCl2, 100 mM NaC1, 0.1 mM EDTA) and placed on a vacuum manifold. The filters were then washed with 8 ml of wash buffer. The filters were then placed overnight in scintillation vials filled with 20 ml of scintillation cocktail. The activity of the vials was counted by a Liquid Scintillation Counter. For the BR-Rhodopsin loop 3 chimeras, in which the rhodopsin intracellular loop 3 replaced the native BR intracellular loop 3 and was fused from T157 on BR TM 5 to V167 on BR TM 6, activity was determined by an increased uptake of GTPS over basal exchange by transducin alone.
The next set of experiments was designed to measure the effects of GDP concentration on the basal exchange of GTPγS by holotransducin.

transducin = transducin (Homo sapiens, UniProt P11488); experiment: GTPyS exchange assay in the presence of high affinity analog or random peptide; assay type: biochemical; details: for % Inhibition of GTPγS Uptake (Controlled for Peptide inhibition of Basal Exchange): 3C; for % Inhibition of GTPγS Uptake (Controlled for Peptide inhibition of Basal Exchange) / Specific counts (Lattice Form) / SPECIFIC COUNTS: (Lattice Form): 10 Minutes
Description: as §1
The high affinity analog has the sequence V-L-E-D-L-K-S-C-G-L-F-G (SEQ ID NO:43) (J. Biol. Chem. 271 pp. 361-366, 1996).
The random peptide consists of the sequence S-S-V-F-L-V-V-D-R-S-R (SEQ ID NO:44).
The addition of the high affinity analog at a final concentration of 8 uM gave the following results.
The second inhibition experiment used 50 uM of the high affinity analog.

[1] = Basal Exchange (no chimera) + 8 uM peptide

Sequence of holotransducin (P11488 2-350 limits assumed): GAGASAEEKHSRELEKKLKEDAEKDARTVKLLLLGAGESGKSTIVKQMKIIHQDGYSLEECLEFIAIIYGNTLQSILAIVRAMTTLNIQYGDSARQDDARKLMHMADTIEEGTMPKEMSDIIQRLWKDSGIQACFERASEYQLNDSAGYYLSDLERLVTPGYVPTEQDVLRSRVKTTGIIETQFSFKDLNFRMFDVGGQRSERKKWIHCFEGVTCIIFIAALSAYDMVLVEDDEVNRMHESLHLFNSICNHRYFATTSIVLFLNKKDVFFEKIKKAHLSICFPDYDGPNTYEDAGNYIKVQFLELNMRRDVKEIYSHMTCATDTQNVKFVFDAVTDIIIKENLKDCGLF
Sequence of holotransducin (P62873 2-340 partner limits assumed): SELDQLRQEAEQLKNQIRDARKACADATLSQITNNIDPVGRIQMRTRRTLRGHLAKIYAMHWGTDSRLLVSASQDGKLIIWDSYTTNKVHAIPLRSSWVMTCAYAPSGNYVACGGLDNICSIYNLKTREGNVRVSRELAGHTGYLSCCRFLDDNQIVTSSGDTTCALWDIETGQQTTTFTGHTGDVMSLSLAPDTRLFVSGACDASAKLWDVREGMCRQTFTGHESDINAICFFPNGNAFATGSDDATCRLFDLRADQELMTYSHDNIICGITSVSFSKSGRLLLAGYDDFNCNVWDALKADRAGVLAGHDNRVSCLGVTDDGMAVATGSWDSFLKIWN
Sequence of holotransducin (P63211 2-71 partner limits assumed): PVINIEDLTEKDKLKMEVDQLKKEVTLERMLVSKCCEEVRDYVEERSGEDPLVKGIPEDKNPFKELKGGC
Sequence of transducin (P11488 2-350 limits assumed): as the sequence (P11488 2-350 limits assumed) above
Sequence of transducin (P62873 2-340 partner limits assumed): as the sequence (P62873 2-340 partner limits assumed) above
Sequence of transducin (P63211 2-71 partner limits assumed): as the sequence (P63211 2-71 partner limits assumed) above

| Specific counts (Lattice Form) (holotransducin; Basal Exchange + 10 uM GDP) | Specific counts (Lattice Form) (holotransducin; Basal Exchange + 50 uM GDP) | Specific counts (Lattice Form) (holotransducin; Basal Exchange + 100 uM GDP) | Molecule | % Inhibition of GTPγS Uptake (Controlled for Peptide inhibition of Basal Exchange) (transducin; 8 uM peptide) | % Inhibition of GTPγS Uptake (Controlled for Peptide inhibition of Basal Exchange) (transducin; 50 uM peptide) | Specific counts (Lattice Form) (transducin; 3C + 8 uM peptide) | SPECIFIC COUNTS: (Lattice Form) (transducin; 3C + 50 uM peptide) | Specific counts (Lattice Form) (transducin; [1]) | SPECIFIC COUNTS: (Lattice Form) (transducin; Basal Exchange (no chimera) + 50 uM peptide) | Effect on chimera-enhanced GTP-GDP exchange (transducin; presence of peptide) |
| --- | --- | --- | --- | --- | --- | --- | --- | --- | --- | --- |
| 22885 counts | 11061 counts | 7502 counts | Nc1nc2c(ncn2[C@@H]2O[C@H](COP(=O)(O)OP(=O)(O)O)[C@@H](O)[C@H]2O)c(=O)[nH]1 [GDP] | – | – | – | – | – | – | – |
| – | – | – | S-S-V-F-L-V-V-D-R-S-R (SSVFLVVDRSR) [Random peptide] | 5.8% | 30% | 47516 counts | 35568 counts | 23868 counts | – | – |
| – | – | – | V-L-E-D-L-K-S-C-G-L-F-G (VLEDLKSCGLFG) [High affinity analog] | 23% | 70% | 42455 counts | 46892 counts | 23154 counts | 33888 counts | inhibited |
